According to the RNAGym collection of RNA variant scans (doi:10.1073/pnas.2313332121):
Variants at the floor of the assay were thinned out.

B1: TPR 5TU (parent)
chain: GGAUCUUCUCGAUCUAACAAAAAAGACAAAUCUGCCACAAAGCUUGAGAGCAUCUUCGGAUGCAGAGGCGGCAGCCUUCGGUGGCGCGAUAGCGCCAACGUUCUCAACUAUGACACGCAAAACGCGUGCUCCGUUGAAUGGAGUUUAUCAUG

Variants of: B1
Experiment: polymerase ribozyme fitness, log enrichment relative to wild type (log ratio); higher = more active; in vitro selection for triplet polymerase activity
Method in brief: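 Mutant libraries of each subunit of a heterodimeric triplet polymerase ribozyme were built by PCR and transcribed. Each library went through one round of in vitro selection in triplicate: annealing with biotinylated primer, partner subunit and triplets, frozen incubation at −7 °C, gel excision of extended constructs, streptavidin-bead capture and RT-PCR. Input and output libraries were Illumina-sequenced; only genotypes with ≥10 input reads and ≥1 read per output were kept. Fitness is log2(genotype enrichment/wild-type enrichment), using inverse-variance-weighted replicate averages.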

Row | Variant | polymerase ribozyme fitness (log ratio)
1 | U55G U56A G59C C99G A142G | -2.78
2 | C8A G83C C85G G140C A150C | ≤ -4.2
3 | U55A C93U C95A | -2.89
4 | C14U A23U A37C A52G G58C C85G A119C A137U | ≤ -4.2
5 | C10U U13C A52U C96A | -3.64
6 | C32A G80U C96U A138U | ≤ -4.2
7 | A37C A49C U77A C87G A120G C131G | ≤ -4.2
8 | C14A A26G G67A A73U G86C A121U C123G A138C U146A | ≤ -4.2
9 | C51G A73G G94U C95U C118A A142U G152A | ≤ -4.2
10 | A22G A23C G83A | ≤ -4.2
11 | U6A C69U | -1.1
12 | A30C A73U C85G C93G C96G C149U | ≤ -4.2
13 | A21C G25C C36G C93G A115U U134A U146A | ≤ -4.2
14 | C87G A91C A122G | ≤ -4.2
15 | C95U C96G | -0.577
16 | A19U G58U C87U A119U | -2.02
17 | A40C A41C C43U U55G C72U C96U A120U G124C | ≤ -4.2
18 | U45C C108G | ≤ -4.2
19 | A64G G68A C85A | ≤ -4.2
20 | U15A A49C U53A G86U | ≤ -4.2
21 | A26U C27A A29U G34A U61A C76G | ≤ -4.2
22 | U6G A17C A37G A52C C54U C96A A122U U134C | ≤ -4.2
23 | C10G A19G A37G G42C C57U G59A C129A | ≤ -4.2
24 | A49G C93A G100A | ≤ -4.2

Row | Variant | polymerase ribozyme fitness (log ratio)
25 | A52U G86C A91C U139C | ≤ -4.2
26 | A52U U53A U101G | -2.73
27 | A22U C35A A41C U53G C87U A97C C108U U151A | ≤ -4.2
28 | U53G C54G C57U C95U | -4.07
29 | A22G G80A G86A C93A | -4.2
30 | C18U A41G G46A U56G C85A U135G U144C | ≤ -4.2
31 | U7A A64U G74A C79A C85A G94U U130G | ≤ -4.2
32 | C5G A17G C32U A49C C54U U55G G88C C96A | ≤ -4.2
33 | U9G A17C A22U A29G G50A G68A | ≤ -4.2
34 | C54U G117C C123U | -0.0466
35 | A16C C27G A49G G50A A60C C79A A91U C105G | ≤ -4.2
36 | U13A C54A A91C | ≤ -4.2
37 | U45G G70A G92U G94A C116G G152U | ≤ -4.2
38 | A28U G48C C75U U90G G117A C129G | ≤ -4.2
39 | G58C U82A | 0.644
40 | U82G A107U | -2.6
41 | C43U G80A A115G | ≤ -4.2
42 | A41C U55C U56A C75A G83C C131A U135C | ≤ -4.2
43 | C18G C51U C85A A107U C118U A137U | ≤ -4.2
44 | A39U | -1.9
45 | C43U A147U | -4.06
46 | G50U A52C C57A G58U A107G | ≤ -4.2
47 | A91U A147C | ≤ -4.2
48 | A40U C96U C118U | -0.191

Row | Variant | polymerase ribozyme fitness (log ratio)
49 | A26C C123G G141U | -2.47
50 | U90A C131A G143A | -4.19
51 | C57U C85A C96G C116U G143C U148A | ≤ -4.2
52 | A28U C63U C72U C93U C105G A142U | ≤ -4.2
53 | A3C U9A A73U U144A C149G | ≤ -4.2
54 | C85A C96A G128C | -4.03
55 | A49G C57U | -0.525
56 | C5U A19U G83U G92U C123A G126U U146G | -4.19
57 | U53A A122U A138U | -4.07
58 | C51U C96A A121C U134A | -3.19
59 | G50A G68A C95A G140C | ≤ -4.2
60 | C32U G126U | -2.43
61 | G67C C85U G126U G133C G143A | ≤ -4.2
62 | A49C G58A | -4.08
63 | G84A A91G A122C | -3.61
64 | C36U G48U C96G C103G A121C | -2.74
65 | A30C C36A A52G C108A G152A | ≤ -4.2
66 | G59A U134A | -2.02
67 | C5G C87U A98G | -1.31
68 | G74U A107G | ≤ -4.2
69 | A49G G59C U77G U139A | ≤ -4.2
70 | A20U A41U G59A G67A G86C | ≤ -4.2
71 | G48U C93A | -2.5
72 | A22C A26U C36U C54U C85U A98U A106G | ≤ -4.2

Row | Variant | polymerase ribozyme fitness (log ratio)
73 | C57U U82G | 0.0517
74 | A3U C32A U45G G50C U53A A60G G94A A98G G141U | ≤ -4.2
75 | C32U A40C | -4.1
76 | U31A C32G C72G A150U | ≤ -4.2
77 | C93G G143U | -4.04
78 | A49C C99U | ≤ -4.2
79 | A16G A73G | -0.494
80 | A16G U53A | -1.79
81 | U13G U53A C85A C95U A98U G141C | ≤ -4.2
82 | A24U A30C G48U A60G G94C U109G A113U | ≤ -4.2
83 | A64C C93U U102G | ≤ -4.2
84 | C76U U77G A147G | ≤ -4.2
85 | A17C C54A C87A C114U | ≤ -4.2
86 | A24C C125U | ≤ -4.2
87 | A40G G59A G68U | ≤ -4.2
88 | A12C C51U C85A A150U | -0.931
89 | C114G G133C | -3.93
90 | G50A C116U A121U C132U U144G | -1.82
91 | C96A A107G | -4.2
92 | C14G A26G C27A U44A U45C C72A U151G | ≤ -4.2
93 | C38U G65U G71U U90C C114U U135C U146A | ≤ -4.2
94 | A20G C54U A107U A120G | -3.56
95 | C51G G94A | -1.79
96 | U56A A106G | -0.585

Row | Variant | polymerase ribozyme fitness (log ratio)
97 | A40U C114G | -3.04
98 | C10G A29U C95U C108A | ≤ -4.2
99 | A91U A97G A122U A147U | ≤ -4.2
100 | U7G G25A A28U C54A C85U U148G C149U | ≤ -4.2
101 | G11U A26U U82A C93A | ≤ -4.2
102 | A21G G59C U102G G124A | -3.04
103 | C85G C87U | -3.28
104 | U6G C10A A40G A60G C75A G80C A107U G126A G133U U139G G143C | ≤ -4.2
105 | C18G C54U U61G C87U C95U | -3.85
106 | A26G A97G | -3.72
107 | A19C G83U | 0.141
108 | A28U C32G G133C | ≤ -4.2
109 | C27A U82A A91G C131G U139C | ≤ -4.2
110 | G70U | -1.81
111 | C35U A64G G81U G92A C93A A115U U134A U151G | ≤ -4.2
112 | C35U C54U G65U G83C C95U C103G A106G | ≤ -4.2
113 | C14G U31G G86C U102G | ≤ -4.2
114 | A24C C87A A106G U135C | ≤ -4.2
115 | C32A G74U C85A A98U | -0.754
116 | A22C G25A C93U C118A | ≤ -4.2
117 | A37C A41U G50C G81U C95U U111A C118G U127C A142C | ≤ -4.2
118 | C27G A29G A41C G67A G74A | ≤ -4.2
119 | A19U A21U A23U G67C G88A U102C A150G | ≤ -4.2
120 | U4A C10U A23C C57U G81A G92C A115C C118A | ≤ -4.2

Row | Variant | polymerase ribozyme fitness (log ratio)
121 | U15G A28U A49C A66C C79A A97U G124A | ≤ -4.2
122 | A12C U15C C35U G58A U90C G126U | ≤ -4.2
123 | C8U G42C C85A | ≤ -4.2
124 | A16G G46U G84A C105U G133C A138G A142G | ≤ -4.2
125 | C36U | -0.919
126 | A47U U56A C85A U104A | -2.77
127 | C27U A47U U53A | -2.28
128 | C54U U55G U56A C69U A73C A115U | ≤ -4.2
129 | A16G C38A C76A C85U U134A | -4
130 | C72U C87A A137C U139A | ≤ -4.2
131 | C96U U101G | 0.195
132 | A40G C85G | -3.63
133 | A24C A47C C57U A121U | ≤ -4.2
134 | G58U U61G | -1.81
135 | A52G U82A C96G | 0.187
136 | A91G C96U | -3.04
137 | C32G G50A C63U A91G C125G A147G | ≤ -4.2
138 | A12C A24G G50C C72U C87G U111C | ≤ -4.2
139 | C54A G124A C125U A147C | -2.1
140 | A21G A26G C38G C72U C87G A89U A150G | ≤ -4.2
141 | A20C C38G | -1.37
142 | A29C A41G G46U A49G C75U G83A A121G G152U | ≤ -4.2
143 | A64U A66G U77C C96G C103G C116A | ≤ -4.2
144 | A41G G70A C93U A98U | -3.95

Row | Variant | polymerase ribozyme fitness (log ratio)
145 | U45A G84U | ≤ -4.2
146 | G83C A121G | -0.25
147 | C18U G58A | -0.517
148 | A40G A49C U53A | ≤ -4.2
149 | C18U U144C C149U | -4.09
150 | A20G C93U C99A G124U | -2.78
151 | A17U A24U | 0.106
152 | U55G C103A | -2.99
153 | A24C G58A G112U A122G | ≤ -4.2
154 | C32G G42C A47G G59C A91U A107G | ≤ -4.2
155 | A41U G46A G59A G86C | ≤ -4.2
156 | C10G A21U C87G A91U C95A | ≤ -4.2
157 | U4C C8U A22U G50U C54U A107U C116G | ≤ -4.2
158 | A40C U55A G86C A115C | -3.79
159 | A17G C27G C43U C87G A89C U109A A147U | ≤ -4.2
160 | A29G C54A | -3.78
161 | U45A G59C C85U G86A G92U U146G | ≤ -4.2
162 | A28U A41C C54A A60C C96A C105U A106U | ≤ -4.2
163 | C63G G92A | -2.18
164 | A16C C38A C76U | -2.07
165 | U13G C14A C72U G83A G117U | -2.88
166 | C27U C54G C87U G92A C118A U144G | -3.12
167 | C5U U139G | 0.221
